Measurements taken from patent publication US20260347455 (published 2026).

T1: human BMP6 (Peprotech 120-06) (human)
T1 chain: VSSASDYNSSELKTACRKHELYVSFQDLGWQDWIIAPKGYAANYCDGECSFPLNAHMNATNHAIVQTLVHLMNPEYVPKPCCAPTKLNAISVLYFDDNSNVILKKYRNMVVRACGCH

B1: CL-58838 Fab (antibody, V domains shown)
VH: QVQLVESGGGLVKPGGSLRLSCAASGFTFSDYYMSWIRQAPGKGLEWVSYISISGSTIYYADSVKGRFTISRDNAMDSLYLQMNSLRAEDTAVYYCARRSSGWYDYWGQGTLVTVSS
VL: EIVLTQSPGTLSLSPGERATLSCWASQRVVYRYLAWYQRKPGQAPRLLIYGAFNRATGIPDRFSGSGSGTDFSLTISRLEPEDFAVYYCHQYGSSPPTFGQGTKVEIK
B2: CL-58838 IgG4 (antibody, V domains shown)
VH: B1 VH
VL: EIVLTQSPGTLSLSPGERATLSCWASQRVVYRYLAWYQRKPGQAPRLLIYGAFNRATGIPDRFSGSGSGTDFSLTISRLEPEDFAVYYCHQYGSSPPTFGQGTKVEIKR

Tests used:
[1] = biological target: T1, human BMP6 (Peprotech 120-06); test: SPR, 37C, pH 7.6
[2] = biological target: T1, human BMP6 (Peprotech 120-06); test: SPR, 37C, pH 7.6, bivalent (relative KD)

Binder | Kd [1] [nM] | Kd [2] [nM]
B1 | 0.14 | 
B2 |  | 0.07
